Numbered stars: 1 amine (or outer) side, 2 acyl side, 3 side chain; on linkers, the order of the positions; unused ones are H or OH. Square brackets hold non-standard residues; d marks the D form. Side chains are listed from the residue outwards. * marks the point of attachment. C20 diacid = O=C(O)CCCCCCCCCCCCCCCCCCC(=O)*; C18 diacid = O=C(O)CCCCCCCCCCCCCCCCC(=O)*; γGlu = O=C(O)[C@H](CCC(=O)[*:2])N[*:1]; AEEA = NCCOCCOCC(=O)O; Aib = CC(C)(N)C(=O)O
T1: human GIP receptor (human, UniProt P48546 22-466)
T1 sequence (looked up): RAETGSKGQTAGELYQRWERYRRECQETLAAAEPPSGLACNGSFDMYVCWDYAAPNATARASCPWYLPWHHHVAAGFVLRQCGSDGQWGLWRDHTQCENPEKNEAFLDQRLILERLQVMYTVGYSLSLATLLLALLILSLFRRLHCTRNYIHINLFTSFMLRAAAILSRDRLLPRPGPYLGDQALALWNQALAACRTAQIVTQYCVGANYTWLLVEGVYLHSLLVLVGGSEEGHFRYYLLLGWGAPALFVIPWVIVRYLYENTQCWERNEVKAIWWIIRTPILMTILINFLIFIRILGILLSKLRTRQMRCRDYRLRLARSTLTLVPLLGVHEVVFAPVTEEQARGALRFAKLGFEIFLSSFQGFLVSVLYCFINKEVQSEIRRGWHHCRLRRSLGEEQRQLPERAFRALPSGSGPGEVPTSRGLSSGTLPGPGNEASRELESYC

T2: human amylin-3(a) receptor (human, UniProt P30988 25-474; O60896 24-148)
T2 sequence (looked up) 1: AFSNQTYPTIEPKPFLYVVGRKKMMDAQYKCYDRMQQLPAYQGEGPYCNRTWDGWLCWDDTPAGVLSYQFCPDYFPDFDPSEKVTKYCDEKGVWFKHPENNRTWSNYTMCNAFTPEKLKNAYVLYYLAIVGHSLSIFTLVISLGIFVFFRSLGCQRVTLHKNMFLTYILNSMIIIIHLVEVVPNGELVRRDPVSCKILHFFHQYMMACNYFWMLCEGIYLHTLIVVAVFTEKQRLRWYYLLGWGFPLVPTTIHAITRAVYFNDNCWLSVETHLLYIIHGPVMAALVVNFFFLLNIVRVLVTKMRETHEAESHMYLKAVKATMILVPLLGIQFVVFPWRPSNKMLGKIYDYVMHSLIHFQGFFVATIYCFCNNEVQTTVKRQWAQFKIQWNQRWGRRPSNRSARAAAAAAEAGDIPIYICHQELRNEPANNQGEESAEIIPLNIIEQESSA
T2 sequence (looked up) 2: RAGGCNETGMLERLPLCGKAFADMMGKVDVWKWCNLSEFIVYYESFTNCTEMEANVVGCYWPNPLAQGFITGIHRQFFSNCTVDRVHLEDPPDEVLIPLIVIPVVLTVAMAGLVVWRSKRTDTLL

B1: Compound 71 (peptide)
peptide: H[Aib]HGTFTSDYSILLEEQAAREFIEWLLAGGPSRGAPPPSGGGEASHLSTQTQGRLSAELHK([AEEA-AEEA-γGlu-C18 diacid])LATLPRTETGSGSP-NH2
B2: Compound 82 (peptide)
peptide: H[Aib]HGTFTSDYSILLEEQAAREFIEWLLAGGPSSGEASHLSTAQTQRLSAK([AEEA-AEEA-γGlu-C18 diacid])LHRLATLPRTETGSGSP-NH2
B3: Compound 72 (peptide)
peptide: Y[Aib]EGTFTSDYSILLEEQAAREFIEWLLAGGPSRGAPPPSGGGEASHLSTQTQGRLSAELHK([AEEA-AEEA-γGlu-C18 diacid])LATLPRTETGSGSP-NH2
B4: Compound 70 (peptide)
peptide: H[Aib]HGTFTSDYSILLEEQAAREFIEWLLAGGPSRGAPPPSGGGEASELSTAALGRLSAELHK([AEEA-AEEA-γGlu-C18 diacid])LATLPRTETGSGSP-NH2
B5: Compound 79 (peptide)
peptide: Y[Aib]EGTFTSDYSILLEEQAAREFIEWLLAGGPSSGEASHLSTAQTQRLSAK([AEEA-AEEA-γGlu-C18 diacid])LHRLATLPRTETGSGSP-NH2
B6: Compound 76 (peptide)
peptide: Y[Aib]EGTFTSDYSILLEEQAAREFIEWLLAGGPSSGAGQAPGQAPGASHLSTAQTQRLSAELHRLATLPK([AEEA-AEEA-γGlu-C20 diacid])TETGSGSP-NH2
B7: Compound 73 (peptide)
peptide: H[Aib]HGTFTSDYSILLEEQAAREFIEWLLAGGPSK([AEEA-AEEA-γGlu-C18 diacid])GEASQLSTAALGRLSAELHRLATLPRTETGSGSP-NH2
B8: Compound 81 (peptide)
peptide: Y[Aib]EGTFTSDYSILLEEQAAREFIEWLLAGGPSSGEASHLSTAQTQRLSAELHRLATLPK([AEEA-AEEA-γGlu-C18 diacid])TETGSGSP-NH2
B9: Compound 78 (peptide)
peptide: H[Aib]HGTFTSDYSILLEEQAAREFIEWLLAGGPSSGAGQAPGQAPGASHLSTAQTQRLSAK([AEEA-AEEA-γGlu-C18 diacid])LHRLATLPRTETGSGSP-NH2
B10: Compound 83 (peptide)
peptide: H[Aib]HGTFTSDYSILLEEQAAREFIEWLLAGGPSSGEASHLSTAQTQRLSAELHRLK([AEEA-AEEA-γGlu-C18 diacid])TLPRTETGSGSP-NH2
B11: Compound 75 (peptide)
peptide: H[Aib]HGTFTSDYSILLEEQAAREFIEWLLAGGPSGGEASHLSTAQTQRLSAELHK([AEEA-AEEA-γGlu-C18 diacid])LATLPRTETGSGSP-NH2
B12: Compound 77 (peptide)
peptide: Y[Aib]EGTFTSDYSILLEEQAAREFIEWLLAGGPSSGAGQAPGQAPLASHLSTAQTQRLSAELHK([AEEA-AEEA-γGlu-C20 diacid])LATLPRTETGSGSP-NH2
B13: Compound 80 (peptide)
peptide: Y[Aib]EGTFTSDYSILLEEQAAREFIEWLLAGGPSSGEASHLSTAQTQRLSAELHRLK([AEEA-AEEA-γGlu-C18 diacid])TLPRTETGSGSP-NH2
B14: Compound 74 (peptide)
peptide: Y[Aib]EGTFTSDYSILLEEQAAREFIEWLLAGGPSGGEASHLSTAQTQRLSAELHK([AEEA-AEEA-γGlu-C18 diacid])LATLPRTETGSGSP-NH2
B15: Compound 84 (peptide)
peptide: H[Aib]HGTFTSDYSILLEEQAAREFIEWLLAGGPSSGEASHLSTAQTQRLSAELHRLATLPK([AEEA-AEEA-γGlu-C18 diacid])TETGSGSP-NH2

Columns and labels:
Assay in all cases: cell-based or functional assay
human GLP-1 receptor [1] = target: T3, human GLP-1 receptor (human, UniProt P43220 24-463)
human GIP receptor [2] = target: T1, human GIP receptor
[3] = target: T2, human amylin-3(a) receptor
human GLP-1 receptor [4] = target: T3, human GLP-1 receptor; remark: listed apart in the source
human GIP receptor [5] = target: T1, human GIP receptor; remark: listed apart in the source
[6] = target: T2, human amylin-3(a) receptor; remark: listed apart in the source

Binder | hGLP-1R Potency, no HSA, EC50 [pM] (human GLP-1 receptor [1]) | hGIPR Potency, no HSA, EC50 [pM] (human GIP receptor [2]) | hAMYR3 Potency, no HSA, EC50 [pM] [3] [pM] | hGLP-1R Potency, 1% HSA, EC50 [pM] (human GLP-1 receptor [4]) | hGIPR Potency, 1% HSA, EC50 [pM] (human GIP receptor [5]) | hAMYR3 Potency, 1% HSA, EC50 [pM] [6] [pM]
B1 | 3.34 | 2.77 | 8.66 | 18.4 | 9.28 | 274
B2 | 3.45 | 3.7 | 3.26 | 24.2 | 19.1 | 38
B3 | 13.1 | 2.12 | 6.57 | 41.7 | 9.79 | 589
B4 | 3.48 | 5.89 | 4.53 | 18.4 | 19.1 | 59.4
B5 | 38.7 | 4.7 | 3.53 | 168 | 24.7 | 53.4
B6 | 19.9 | 2.82 | 3.11 | 63.6 | 11.1 | 430
B7 | 4.55 | 4.98 | 1.99 | 54.1 | 96.5 | 61.5
B8 | 16 | 3.31 | 4.07 | 51.4 | 15.8 | 188
B9 | 4.03 | 3.49 | 1.83 | 17.8 | 10.4 | 17.1
B10 | 2.3 | 2.92 | 2.9 | 9.89 | 13.6 | 45.7
B11 | 3.66 | 2.65 | 2.49 | 25.2 | 11.9 | 110
B12 | 19.7 | 2.53 | 3.13 | 51.4 | 13.4 | 382
B13 | 24.8 | 4.01 | 3.23 | 111 | 20.2 | 62.4
B14 | 29.8 | 2.51 | 2.73 | 141 | 18.7 | 134
B15 | 3.31 | 3 | 4.41 | 25.9 | 11.6 | 175

Reference: US20260174875A1 (Novo Nordisk A/S, priority 2023, published 2026)
